Reference: patent publication US20150044137A1 (UNITED STATES OF AMERICA AS REPRESENTED BY THE SECRETARY …, published 2015)
Changes are numbered by the printed parent chain.

Assays:
[1] = target: T1, Yu2 gp120 HIV-1 Env protein (HIV-1 (strain Yu2), UniProt P35961 32-498); assay: ELISA-type plate assay (OD450), mAb titrated on Yu2 gp120 WT
T1 construct: domain: gp120

[2] = target: RSC3 probe; assay: ELISA-type plate assay (OD450), mAb titrated on RSC3 [panel VRC14b]
[3] = target: RSC3 probe; assay: ELISA-type plate assay (OD450), mAb titrated on RSC3 [panel VRC14]
[4] = target: RSC3 probe; assay: ELISA-type plate assay (OD450), mAb titrated on RSC3 [panel VRC14c]
[5] = target: T1, Yu2 gp120 HIV-1 Env protein

B1: VRC16b (antibody, V domains shown)
VH: EVQLSESGGGVVKPGGSLRLSCEASGFTFSNYAMSWVRQAPGKGLEWVSVTGGHGTYGYYGEFVKGRFTISRDHSMDTVYLQMNRLRVEDTAVYYCVRTPYYHESSGYYYRAGNYFDFWGKGTLVIVSA
VL: DIQMTQSPSSLSASVGDRVTITCRASQDIANYLNWYQKKSGTPPKLLIFAATNLHRGVSPRFSGSGSGTHFSLTITNVQYEDFANYFCQHSFGTIGTFGQGTWVDIR
Q: For B1, which “EC50 (read off the curve)” value [1] is on record?
A: ~20 ng/mL

B2: VRC16c (antibody, V domains shown)
VH: EVQLSESGGGFVKPGGSLRLSCEASGFTFNNYAMSWVRQAPGKGLEWVSVTSAHGGSAYYGEFVKGRFTMSRDHFIDTVYLEMNRLTVEDTAVYYCVRVTFYHEGSGYYYRAGNYFDSWGKGTRVVVSA
VL: B1 VL with V15I, S63T, S67H, Y80H, A84G, N85H, H90Q, G93A, I95V, T97S
Q: How did the “EC50 (read off the curve)” value [1] turn out when B2 was run?
A: ~5 ng/mL

B3: VRC16d (antibody, V domains shown)
VH: B2 VH with R85G
VL: B1 VL with V15I, S63T, S67H, Y80H, A84G, H90Q, G93A, I95V, T97S
Q: How did the “EC50 (read off the curve)” value [1] turn out when B3 was run?
A: ~5 ng/mL

B4: VRC14b (antibody, V domains shown)
VH: QVQLVQSGTALKSPGSSAKLSCTVLGDEFGTYFISWIRQAPGQGLEWVGGIVPHSQLQSSAQKFHGRITISAGAGVTPPVVSLQLTNLTFEDTGTYFCARERGRHRDPKTGDALRGRYFDFWGRGTGVRVST
VL: QSALTQPAFVSGSPGQSITLSCTLGTEDVSWYQQRPNSAPRLIIFDVKKRPSDVSDRFSGHNSDTAAFLTISELRPEDEAEYFCTSWPYRFGRGTKVDVA
Q: For B4, which “EC50 (read off the curve)” value [2] is on record?
A: ~7 ng/mL

B5: VRC14 (antibody, V domains shown)
VH: B4 VH with T69I, V128L
VL: QSALTQPAFVSGSPGQSITLSCSLGTADVSWYQQRPNSAPRLIIFDVKKRPSDVSDRFSGHNSDTAAFVTISELRPEDEAEYFCTSWPYRFGPGTKVDVAR
notes: also called mAb VRC14
Q: How did the “EC50 (read off the curve)” value [3] turn out when B5 was run?
A: ~6 ng/mL

B6: VRC14c (antibody, V domains shown)
VH: B4 VH with T69I, D112K, L114P, R129T, T132A
VL: B4 VL with E81D, G92D
Q: How did the “EC50 (read off the curve)” value [4] turn out when B6 was run?
A: ~20 ng/mL

B7: VRC13 (antibody, V domains shown)
VH: QVQLVQPGTAMKSLGSSLTITCRVSGDDLGSFHFGTYFMIWVRQAPGQGLEYMGGILPSTKTPTYAHKFRGRVSISAPGVPPVLSLALTNLTYDDTATYFCARERGRHFEPKNRDNLEGKFFDLWGRGTFVRVSP
VL: QSALTQPASVSGSPGQSINISCAGRSDRVSWYQQRPNGVPKLLMFDVYRRPSGVSDRFSGSHSGDTAFLTISGLQTEDEADYYCTSHPYAFGAGTKVNVLR
Q: With B7 as the binder, how does the “IC50 (read off the curve)” value [5] read?
A: ~400 ng/mL
